From the supplement of paper PMC12042874
± gives the uncertainty stated by the source.

assay: amyloid nucleation score (Sup35N fusion, yeast selection) (log enrichment); library NNK3; higher = more nucleation; inactive = no reads after selection
How it was run: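 Growth for 7 days at 30°C on medium lacking adenine and uracil followed a 24-hour induction with 100 μM copper sulfate of psi-negative yeast expressing peptides of 20 random codons fused to Sup35N. Input and output plasmid inserts were sequenced with Illumina, and sequences with under 100 input reads were excluded. Nucleation score is the DiMSum log enrichment of output over input reads, centred on the mode score of non-aggregating sequences.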

| Substance | amyloid nucleation score |
| --- | --- |
| NRCTCAV | inactive |
| TGARMVLCIFGIYSMYTLHN | 1.99 ± 0.074 |
| TFSPVGMISLYCYGT | -0.065 ± 0.45 |
| CICWQHDKVVAYSLSDAGMA | inactive |
| FYIFNWGFFGIKWYLIWNEI | inactive |
| FYFMPNFV | inactive |
| IVEDVGYLHLYRIQFGGVSE | inactive |
| APSPPMNFSPCKLDLPCWAI | inactive |
| MCQAIDSNTYWYLAHCGNSS | 0.494 ± 0.25 |
| CVSIKIASPPF | 0.43 ± 0.3 |
| VKISYDKSRHVCLCGFSSM | 2.37 ± 0.077 |
| GGAVMMALWGGLS | inactive |
| ARQTVPSCTLYYWFLSTVKY | inactive |
| HNVFST | inactive |
| THLSVEFS | inactive |
| ASVMLNFC | inactive |
| PIMAWIWWRASDPMQKRLVG | inactive |
| NFLFISYYVPGQCTV | inactive |
| TMSGFYYNSFIRYNLAL | inactive |
| VKEPMVPITLLSSTSSLDGM | inactive |
| CKGKSFFARSYS | inactive |
| YTSLCASVNGGLTIS | -0.464 ± 0.8 |
| DISIGQRVRCTIFSGIGPLT | -0.913 ± 2.5 |

| Substance | amyloid nucleation score |
| --- | --- |
| CMSPYALGEISKRRVEVDSY | inactive |
| SPWLSAHRSNTGVRTLSLEV | inactive |
| FISLVPLLSLYRPWVKK | 0.836 ± 0.18 |
| LSITDVGI | inactive |
| DPVMTACNALMTSVS | -0.319 ± 1.3 |
| VRISMRDMVWSRFWLPVVLK | inactive |
| VVILHCKTYAMASRWYGYRG | -0.003 ± 0.81 |
| TAQFDNSCSGLQHVVVNK | inactive |
| ACKSGHLNSHKNGYYV | inactive |
| HILSCSQVFG | 0.025 ± 0.6 |
| TISLHFLGTADKPYLSWVAN | inactive |
| PLKTLFCSVLSCVIFLYLLM | inactive |
| RLVVVYLGTNSTSKEDISC | 0.332 ± 0.23 |
| HTGLVILSVISPVTCPYWRK | 0.329 ± 0.3 |
| FCMMKRSFCPDLNKLATDLV | inactive |
| NLSLFWMWELGKFYHGDRTA | 2.23 ± 0.066 |
| FVQDFSTFTAGWCL | inactive |
| GRCFKFCNLDT | inactive |
| ECATTVGNAFRRSGVQVFAM | inactive |
| LYSECNDPNKA | inactive |
| TSPNYTGPMNSCLRAWLWDR | inactive |
| LWTYIWDRFEDPVECLRWWN | inactive |
| LSTWSHPSCDRTYVNLKNIV | inactive |

| Substance | amyloid nucleation score |
| --- | --- |
| FLEWEGFRVCIENHMELLRF | inactive |
| SLCLVSLLCFSFRCNDGKWR | 1.38 ± 0.084 |
| SMQVQMTWLCDRSSLGQRNL | 1.61 ± 0.074 |
| GKFNTCA | inactive |
| DMTGGVCHFWSCCVSCNK | 2.96 ± 0.072 |
| ATGYGL | inactive |
| PWCVKIHRWVLYWSYKLSIS | inactive |
| DSLKIR | inactive |
| VPGFLGLTLHLLRREHQQNH | inactive |
| PALMDLGYRYVSRNFDL | inactive |
| ILRCVFRGYMYYVMGSFYLT | inactive |
| HSDFY | inactive |
| DLFSFYVGCLKSHPENPSLM | inactive |
| GERHMVLSVNLRCVTVNVYW | inactive |
| GIKKTREPNCLVCIDIWIFI | 1.33 ± 0.07 |
| FNERDWCNSSGSSHVLWSSM | inactive |
| AIKYICSFSSVSVMR | inactive |
| KYLVALVRVRQSNLHS | inactive |
| TIRYRIQVNSCHESVIAGYT | inactive |
| ACFVKY | inactive |
| EFLESMNFVVTFLRWIQWTN | inactive |
| ALVLNRVLRLDVGVSSGCRL | inactive |
| RMSLRAELVKVNLEAIPNWT | inactive |

| Substance | amyloid nucleation score |
| --- | --- |
| AIDHSFT | inactive |
| QTMLIM | inactive |
| VSSFWFCLS | inactive |
| GYCGQVCWFNAKSWMKRMTF | inactive |
| SFVHGKLILKFRSVNASRQS | inactive |
| RERIFRICVFRMTSDKMTAT | inactive |
| VGRPTASGLRNCMWSLSWCV | inactive |
| NTFTPVFLTSKYSMRYGLIM | inactive |
| RVGAVMVEGRFLYHA | 0.522 ± 0.38 |
| FRYQDNDLLAHAA | -0.474 ± 1 |
| FFCSGS | inactive |
| SHIVFM | inactive |
| SALLKWYRYTSAWSGNDVAA | inactive |
| LFFFMALRVGLPNNTNMGMK | inactive |
| SETKVIGQLRKTSNSEAHNA | 0.422 ± 0.67 |
| GACTHGRSSCDKIYLRYSYG | inactive |
| ESRMDRCCPSFGMCSLRYQK | inactive |
| YRNLWNIHTVISIASL | inactive |
| VLMQSS | -0.36 ± 1.2 |
| KFPWT | inactive |
| ERLSMLVPYISDRYWLSDVN | inactive |
| RSVVLLAMMSGYRDISIFRT | inactive |
| SIDNLSPRPTWSGIMFSHCL | inactive |

| Substance | amyloid nucleation score |
| --- | --- |
| HIKVVRPRSRCDLLGSPISQ | inactive |
| RVMCTYTRYLWFKFISLMMV | inactive |
| CDSLHNDAVYTSLGAWANHP | inactive |
| NHRYMMVTATRIKWDGVSWN | inactive |
| ILMELPRRRMWSLKALSLMY | inactive |
| LGESMGRHVKRNKSAPERGM | inactive |
| GVNDRGNKRYAPYKTWLRLE | inactive |
| GSDVMSGG | inactive |
| SKWAYIAFGVFVLLFALFNK | -0.161 ± 0.27 |
| PAGTICGCRHGRLWNGPSRW | inactive |
| DWTGNMGDNHSTRVFRRKRD | inactive |
| KSRTIQECMAATYVSVFECF | inactive |
| YLGRFNSKFMTSVLIMYYP | inactive |
| DFHYFKRVRNQGWNQKRKRY | inactive |
| PLVDPLGELYAATFCSGEYC | inactive |
| FFLAASPISRNWWSSSLGHS | inactive |
| HFHSVIELVYG | inactive |
| SRYLLADSFFRASAVWDVSE | inactive |
| LLVANG | inactive |
| GTVSSYLRTHSKVFSRRFRD | inactive |
| YYRSCWLSLCWCYHYCYGVD | 0.346 ± 0.61 |
| VTGMFDSSLRRKMKVPVWAI | inactive |
| SWVGTG | -0.331 ± 0.84 |

| Substance | amyloid nucleation score |
| --- | --- |
| YKVKIPMVCAVISGKSTWVG | inactive |
| SVLICINCNVEHV | 2.44 ± 0.083 |
| FMHSLTGNSGWGKGYRKSHV | 1.04 ± 0.19 |
| TSTFARDKVDFAVLSLF | inactive |
| AFVSPYR | inactive |
| SMWYLVLN | inactive |
| SLSIMYIFTWDGPYIECTFY | 2.71 ± 0.069 |
| ITWWLVIVAARSEGSCSPFQ | 0.158 ± 0.27 |
| GSGGYWFMINVPENKIWVYL | 1.72 ± 0.11 |
| TPMGQCAYHEPVNMVKKALR | inactive |
| YSEKDLIHRRIFVVNGRS | 1.13 ± 0.12 |
| LPICGAD | inactive |
| WYCVAEYGHFKCPSRKYVFG | inactive |
| NKKDHAYKWISVD | inactive |
| GCNREGTYSRPVLTATNGG | -0.152 ± 0.93 |
| DEYATRIGYWCCK | 1.7 ± 0.084 |
| FYSECCILMGFFVGQNHSVW | 1.61 ± 0.094 |
| PFACAVAKNPHES | inactive |
| LFCCPDLFRRG | 2.4 ± 0.09 |
| SSLETLSSLFLIRLMELVSR | inactive |
| CRHRYLDCCFGNWHP | inactive |
| GAGWTQAIAFIQS | inactive |
| RSFKWNSECILWVSMLFSM | inactive |

| Substance | amyloid nucleation score |
| --- | --- |
| SYSSMCLPKNTKAHASWC | inactive |
| LVWYKSDLISIVRHTVDSCC | inactive |
| INTLYMTDRDRSLPESVQNL | inactive |
| MEVDQTYVRIWC | 1.31 ± 0.14 |
| FLSSVSLGDAHSWTFSR | inactive |
| PVNIVCTVNSLSGSYED | inactive |
| NIIVWPVCGILLYTHSIS | inactive |
| MTVRETLYWVRS | inactive |
| EDYLFHLLRDPRRTGWLIWF | inactive |
| RFRMHIIYKRKGIACVRSTS | inactive |
| LFVIKGENNSEEYTNVNFWR | 0.389 ± 0.23 |
| PSCMSDCISIIYS | inactive |
| LFDFYRNSVTD | inactive |
| KSYISVRK | 0.57 ± 0.18 |
| LSRGDLLEYR | inactive |
| FFLYAVLLFTLLPSVLASGN | inactive |
| HCGRTEKDGQLCCENLSGFS | inactive |
| CLVPFAGQWHTVEIMMSSCQ | inactive |
| FLDEFLWSCGIGFLRFIKDV | inactive |
| GSFSCWYCEVVNVV | inactive |
| VSGFERVHGKGSN | inactive |
| YRRAREWGNDDFLNG | 0.785 ± 0.12 |
